# Test results from paper PMC8008698.
# Biological target: SARS 2-Helix (single-chain fusion core of SARS-CoV spike protein: HR1, 22-amino acid linker, HR2) (SARS coronavirus GZ02)
# Assay: crystal structure
substance,measurement,value
"SARS 2-Helix (single-chain fusion core of SARS-CoV spike protein: HR1, 22-amino acid linker, HR2) (domain or fragment)",stoichiometry N,3
